The target of one series is T1, AtMYB2 homodimer (Arabidopsis thaliana, UniProt Q39028 1-273).
T1 sequence: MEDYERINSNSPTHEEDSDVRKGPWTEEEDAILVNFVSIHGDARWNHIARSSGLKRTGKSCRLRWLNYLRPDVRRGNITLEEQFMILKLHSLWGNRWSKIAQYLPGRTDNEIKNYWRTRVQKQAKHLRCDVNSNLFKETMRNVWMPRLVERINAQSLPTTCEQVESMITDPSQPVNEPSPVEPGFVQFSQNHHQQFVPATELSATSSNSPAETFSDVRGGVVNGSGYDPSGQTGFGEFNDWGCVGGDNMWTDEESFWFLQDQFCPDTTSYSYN
Put plainly: EMSA; 18-48 ng/uL protein; monomer band also seen, dimer band at 36 and 48 ng/uL; EMSA: 10 mM Tris pH 7.5, 50 mM KCl, 10 ng DNA in 20 uL, 25 C, 1 h; 6% native PAGE, 0.5x TBE, 4 C. The conditions noted are these: protein: recombinant; tags: His; chain copies: 2; label: none (gel stain); (annealed oligonucleotides). Background: A gel shift assay detects complexes by their altered migration in electrophoresis.

The target in a further series is T2, AtMYB2 (Arabidopsis thaliana, UniProt Q39028 1-273).
T2 sequence: T1 sequence
Put plainly: EMSA; 24-48 ng/uL protein; single-molecule shift only, no dimer band; EMSA: 10 mM Tris pH 7.5, 50 mM KCl, 10 ng DNA in 20 uL, 25 C, 1 h; 6% native PAGE, 0.5x TBE, 4 C. The conditions noted are these: protein: recombinant; tags: His; label: none (gel stain); (annealed oligonucleotides).

B1: ER1a (dsDNA)
DNA 1: GATCCAATTGGTTTGGTCACCGATTTAACCTCATCAATGCCA
DNA 2: TGGCATTGATGAGGTTAAATCGGTGACCAAACCAATTGGATC
As to B1, in the series with AtMYB2 homodimer, the binding result is “binds”.

B2: Ma (dsDNA)
DNA 1: GATCCAATTGACCACTACGTTAGGTAATGGACATCAATGCCA
DNA 2: TGGCATTGATGTCCATTACCTAACGTAGTGGTCAATTGGATC
Regarding B2, the binding result with AtMYB2 is given as “binds”.

B3: ER8 (dsDNA)
DNA 1: GATCCAATTGGTTAGGTCGATCTCAACCTAACATCAATGCCA
DNA 2: TGGCATTGATGTTAGGTTGAGATCGACCTAACCAATTGGATC
Consider B3, for which, in the series with AtMYB2 homodimer, the binding result is listed as “binds”.
